Laboratory results from patent US20180155451A1 (published 2018).
Changes are numbered by the printed parent chain. Names and notes keep the numbering of the source.

T1: FcgRIIaH (human, UniProt P12318 34-217)
T1 construct: extracellular domain; H131 allotype; also called FcγRIIa H; FcgRIIa type H; not shown: C-terminal His tag
T1 sequence (looked up): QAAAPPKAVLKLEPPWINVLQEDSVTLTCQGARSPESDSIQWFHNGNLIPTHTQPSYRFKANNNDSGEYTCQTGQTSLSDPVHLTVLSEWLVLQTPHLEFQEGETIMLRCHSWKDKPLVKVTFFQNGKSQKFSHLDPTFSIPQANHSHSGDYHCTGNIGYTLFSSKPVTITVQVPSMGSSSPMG

T2: FcgRIIb (human, UniProt P31994 43-217)
T2 construct: extracellular domain; also called FcγRIIb; CD32B; not shown: C-terminal His tag
T2 sequence (looked up): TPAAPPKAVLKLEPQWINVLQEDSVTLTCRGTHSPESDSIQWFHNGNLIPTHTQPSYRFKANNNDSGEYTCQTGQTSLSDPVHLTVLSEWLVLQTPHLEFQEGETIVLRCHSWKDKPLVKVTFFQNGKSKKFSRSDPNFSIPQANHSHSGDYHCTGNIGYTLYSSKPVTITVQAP

T3: FcgRIIaR (human, UniProt P12318 34-217)
T3 construct: extracellular domain; R131 allotype; also called FcγRIIa R; FcgRIIa type R; not shown: C-terminal His tag
T3 sequence (looked up): T1 sequence (looked up) with H134R

B1: H240-Kn120/H240-Hl068/L73-k0 (antibody, human IgG1, kappa)
heavy 1: QDQLVQSGAEVKKPGASVKVSCKASGFNIKDTYIQWVRQAPGQGLEWMGRIDPLRKQTKYREKFEGRVTITADTSTNTAYMELSSLRSEDTAVYYCVRSGREFDYWGQGTLVTVSSASTKGPSVFPLAPSSKSTSGGTAALGCLVKDYFPEPVTVSWNSGALTSGVHTFPAVLQSSGLYSLSSVVTVPSSSLGTQTYICNVNHKPSNTKVDKKVEPKSCDKTHTCPPCPAPEYYWGPMVFLFPPKPKDTLMISRTPEVTCVVVDVSDEDPEVKFNWYVDGVEVHNAKTKPREEQYNATYRVVSVLTVLHQDWLNGKEYKCKVSNKDLPAPIEKTISKAKGQPREPQVCTLPPSRDELTKNQVSLWCLVKGFYPSDIAVEWESNGQPENNYKTTPPVLDSDGSFFLYSKLTVDKSRWQQGNVFSCSVMHEALHNHYTQKSLSLSP
heavy 2: QDQLVQSGAEVKKPGASVKVSCKASGFNIKDTYIQWVRQAPGQGLEWMGRIDPLRKQTKYREKFEGRVTITADTSTNTAYMELSSLRSEDTAVYYCVRSGREFDYWGQGTLVTVSSASTKGPSVFPLAPSSKSTSGGTAALGCLVKDYFPEPVTVSWNSGALTSGVHTFPAVLQSSGLYSLSSVVTVPSSSLGTQTYICNVNHKPSNTKVDKKVEPKSCDKTHTCPPCPAPELLGGPSVFLFPPKPKDTLMISRTPEVTCVVVDVSHEEPEVKFNWYVDGVEVHNAKTKPREEQYNSTYRVVSVLTVLHQDWLNGKEYKCKVSNDALPKPIEETISKAKGQPREPQVYTLPPSRCELTKNQVSLSCAVKGFYPSDIAVEWESNGQPENNYKTTPPVLDSDGSFFLVSKLTVDKSRWQQGNVFSCSVMHEALHNHYTQKSLSLSP
light: DIQMTQSPSSLSASVGDRVTITCRASQDIHKYIAWYQQKPGQAPRLLIQYTSTLQPGVPSRFSGSGSGTDYTFTISSLQPEDIATYYCLQYEQLRTFGGGTKVEIKRTVAAPSVFIFPPSDEQLKSGTASVVCLLNNFYPREAKVQWKVDNALQSGNSQESVTEQDSKDSTYSLSSTLTLSKADYEKHKVYACEVTHQGLSSPVTKSFNRGEC
notes: Heterodimerized anti-epiregulin IgG1-type antibody (knobs-into-holes); also called H240-Kn120/H240-HI068/L73-k0
B2: H240-Kn179/H240-Hl089/L73-k0 (antibody, human IgG1, kappa)
heavy 1: B1 heavy 1 with E293K
heavy 2: B1 heavy 2 with G235T
light: B1 light
notes: Heterodimerized anti-epiregulin antibody; E294R in one chain, G236T in the other
B3: H240-Kn120/H240-Hl089/L73-k0 (antibody, human IgG1, kappa)
heavy 1: B1 heavy 1
heavy 2: B1 heavy 2 with G235T
light: B1 light
notes: Heterodimerized anti-epiregulin antibody; G236T in the Hl068 chain; also called H240-Kn120/H240-HI089/L73-k0
B4: H240-Kn180/H240-Hl089/L73-k0 (antibody, human IgG1, kappa)
heavy 1: B1 heavy 1 with E293R
heavy 2: B1 heavy 2 with G235T
light: B1 light
notes: Heterodimerized anti-epiregulin antibody; E294K in one chain, G236T in the other
B5: H240-Kn120/H240-Hl086/L73-k0 (antibody, human IgG1, kappa)
heavy 1: B1 heavy 1
heavy 2: B1 heavy 2 with G235I
light: B1 light
notes: Heterodimerized anti-epiregulin antibody; G236I in the Hl068 chain; also called H240-Kn120/H240-HI086/L73-k0
B6: H240-Kn120/H240-Hl085/L73-k0 (antibody, human IgG1, kappa)
heavy 1: B1 heavy 1
heavy 2: B1 heavy 2 with G235V
light: B1 light
notes: Heterodimerized anti-epiregulin antibody; G236V in the Hl068 chain; also called H240-Kn120/H240-HI085/L73-k0

Target: T1, FcgRIIaH
Experiment: SPR (Biacore), antibody captured on chip, FcgR as analyte
Protocol: (§1) The variants described above were assessed for their binding to FcγR according to the method described in Reference Example 8.
(§2) Analysis of interaction between obj ective antibody and the FcγR was carried out using Biacore T100 (GE Healthcare), Biacore T200, Biacore A100, and Biacore 4000. HBS-EP+ (GE Healthcare) was used as the running buffer, and the measurement temperature was set to 25° C. Chips produced by immobilizing the antigen peptide by the amine coupling method to a Series S sensor Chip CM5 (GE Healthcare), chips produced by allowing preliminarily biotinylated antigen peptides to interact with and immobilize onto a Series S Sensor Chip SA (certified) (GE Healthcare), chips produced by immobilizing Protein L (ACTIGEN, BioVision) to Series S Sencor Chip CM5 (GE Healthcare), or chips produced by immobilizing Protein A/G (Thermo Scientific) to Series S Sencor Chip CM5 (GE Healthcare) were used. Antibodies of interest were captured onto these chips, and allowed to interact to each FcγR diluted with running buffer. To regenerate and repeatedly use the chip, the antibodies captured onto the chip were washed off by reacting 10 mM glycine-HCl, pH 1.5.

Kd [nM]	Binder
41	B1
47	B2
41	B3
38	B4

Target: T4, FcgRIIIaV (human, UniProt P08637 17-208)
T4 construct: extracellular domain; V158 allotype; also called FcγRIIIa V; not shown: C-terminal His tag
Experiment: as above
Protocol: as §1, §2

T4 sequence (P08637 17-208 F176V limits assumed): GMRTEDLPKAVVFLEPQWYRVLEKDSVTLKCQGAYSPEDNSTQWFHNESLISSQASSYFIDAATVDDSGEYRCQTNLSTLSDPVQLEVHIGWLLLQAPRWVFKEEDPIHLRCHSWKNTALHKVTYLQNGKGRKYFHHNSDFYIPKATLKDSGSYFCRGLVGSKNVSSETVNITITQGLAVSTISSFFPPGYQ

Kd [nM]	Binder
0.36	B1
18	B2
5.4	B3
14	B4

Target: T2, FcgRIIb
Experiment: as above
Protocol: as §1, §2

Kd [nM]	Binder
150	B1
400	B2
190	B3
380	B4

Target: T3, FcgRIIaR
Experiment: as above
Protocol: as §1, §2

Kd [nM]	Binder
20	B1
18	B2
14	B3
16	B4

Target: T5, FcgRIa (human, UniProt P12314 16-292)
T5 construct: extracellular domain; also called FcγRIa; FcγRI; not shown: C-terminal His tag
Experiment: as above
Protocol: as §1, §2

T5 sequence (P12314 16-292): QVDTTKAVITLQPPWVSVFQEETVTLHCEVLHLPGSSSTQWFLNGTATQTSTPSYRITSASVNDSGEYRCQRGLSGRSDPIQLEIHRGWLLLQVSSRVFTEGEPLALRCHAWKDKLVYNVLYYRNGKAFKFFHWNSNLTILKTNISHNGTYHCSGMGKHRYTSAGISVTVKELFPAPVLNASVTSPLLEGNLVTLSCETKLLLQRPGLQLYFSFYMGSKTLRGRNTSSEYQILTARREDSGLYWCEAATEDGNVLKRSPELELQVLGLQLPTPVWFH

Kd [nM]	Binder
0.16	B1
0.46	B2
0.18	B3
0.27	B4

Target: T6, FcgRIIIaF (human, UniProt P08637 17-208)
T6 construct: extracellular domain; F158 allotype; also called FcγRIIIa F; not shown: C-terminal His tag
Experiment: as above
Protocol: as §1, §2

T6 sequence (P08637 17-208): as the sequence (P08637 17-208 F176V limits assumed) above, with V160F counted along it

Kd [nM]	Binder
2.2	B1
39	B2
12	B3
24	B4

Target: T1, FcgRIIaH
Experiment: SPR (Biacore); KD of H240-Kn120/H240-Hl068/L73-k0 divided by KD of the sample
Protocol: (§3) The variants described above were assessed for their binding to FcgR according to the method described in Reference Example 8.
as §2

Relative KD	Binder
1	B1
1	B3
0.8	B5
0.9	B6

Target: T4, FcgRIIIaV
Experiment: as above
Protocol: as §3, §2

Relative KD	Binder
1	B1
0.1	B3
0	B5
0.1	B6

Target: T2, FcgRIIb
Experiment: as above
Protocol: as §3, §2

Relative KD	Binder
1	B1
0.8	B3
0.3	B5
0.4	B6

Target: T3, FcgRIIaR
Experiment: as above
Protocol: as §3, §2

Relative KD	Binder
1	B1
1.4	B3
0.9	B5
1.1	B6

Target: T6, FcgRIIIaF
Experiment: as above
Protocol: as §3, §2

Relative KD	Binder
1	B1
0.2	B3
0.1	B5
0.1	B6

Target: T1, FcgRIIaH
Experiment: as above
Remark: another data set of the same source
Protocol: as §1, §2

Relative KD	Binder
1	B1
0.9	B2
1	B3
1.1	B4

Target: T4, FcgRIIIaV
Experiment: as above
Remark: another data set of the same source
Protocol: as §1, §2

Relative KD	Binder
1	B1
0	B2
0.1	B3
0	B4

Target: T2, FcgRIIb
Experiment: as above
Remark: another data set of the same source
Protocol: as §1, §2

Relative KD	Binder
1	B1
0.4	B2
0.8	B3
0.4	B4

Target: T3, FcgRIIaR
Experiment: as above
Remark: another data set of the same source
Protocol: as §1, §2

Relative KD	Binder
1	B1
1.1	B2
1.4	B3
1.3	B4

Target: T6, FcgRIIIaF
Experiment: as above
Remark: another data set of the same source
Protocol: as §1, §2

Relative KD	Binder
1	B1
0.1	B2
0.2	B3
0.1	B4

Target: T1, FcgRIIaH
Experiment: SPR (Biacore), antibody captured on chip, FcgR as analyte
Remark: another data set of the same source
Protocol: as §3, §2

Kd [nM]	Binder
41	B1
41	B3
53	B5
46	B6

Target: T4, FcgRIIIaV
Experiment: as above
Remark: another data set of the same source
Protocol: as §3, §2

Kd [nM]	Binder
0.36	B1
5.4	B3
14	B5
6.2	B6

Target: T2, FcgRIIb
Experiment: as above
Remark: another data set of the same source
Protocol: as §3, §2

Kd [nM]	Binder
150	B1
190	B3
480	B5
390	B6

Target: T3, FcgRIIaR
Experiment: as above
Remark: another data set of the same source
Protocol: as §3, §2

Kd [nM]	Binder
20	B1
14	B3
22	B5
19	B6

Target: T5, FcgRIa
Experiment: as above
Remark: another data set of the same source
Protocol: as §3, §2

Kd [nM]	Binder
0.16	B1
0.18	B3
1.4	B5
87	B6

Target: T6, FcgRIIIaF
Experiment: as above
Remark: another data set of the same source
Protocol: as §3, §2

Kd [nM]	Binder
2.2	B1
12	B3
33	B5
23	B6
